Data from patent US20050164936.

How the values were obtained:
MCP-2, P80075 = molecular target: T1, MCP-2, P80075
T1 chain: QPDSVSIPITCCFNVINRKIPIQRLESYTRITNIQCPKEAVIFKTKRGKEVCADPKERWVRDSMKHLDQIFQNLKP

RANTES(1-68) = molecular target: T2, RANTES(1-68)
T2 chain: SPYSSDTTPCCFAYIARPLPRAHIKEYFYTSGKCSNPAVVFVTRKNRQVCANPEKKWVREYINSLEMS

[1] = molecular target: monocyte chemotactic protein-3 (MCP-3), P80098
Sequence of monocyte chemotactic protein-3 (MCP-3), P80098 (P80098 24-99): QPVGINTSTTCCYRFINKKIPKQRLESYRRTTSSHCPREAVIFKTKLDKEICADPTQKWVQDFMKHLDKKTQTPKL

Sequence of MCP-1, P13500 (P13500 whole entry, looked up): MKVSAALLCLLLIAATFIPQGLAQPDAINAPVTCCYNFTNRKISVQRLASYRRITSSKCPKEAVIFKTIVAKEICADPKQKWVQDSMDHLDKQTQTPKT

B1: Human CD26/DPP IV (protein)
chain: MKTPWKVLLGLLGAAALVTIITVPVVLLNKGTDDATADSRKTYTLTDYLKNTYRLKLYSLRWISDHEYLYKQENNILVFNAEYGNSSVFLENSTFDEFGHSINDYSISPDGQFILLEYNYVKQWRHSYTASYDIYDLNKRQLITEERIPNNTQWVTWSPVGHKLAYVWNNDIYVKIEPNLPSYRITWTGKEDIIYNGITDWVYEEEVFSAYSALWWSPNGTFLAYAQFNDTEVPLIEYSFYSDESLQYPKTVRVPYPKAGAVNPTVKFFVVNTDSLSSVTNATSIQITAPASMLIGDHYLCDVTWATQERISLQWLRRIQNYSVMDICDYDESSGRWNCLVARQHIEMSTTGWVGRFRPSEPHFTLDGNSFYKIISNEEGYRHICYFQIDKKDCTFITKGTWEVIGIEALTSDYLYYISNEYKGMPGGRNLYKIQLSDYTKVTCLSCELNPERCQYYSVSFSKEAKYYQLRCSGPGLPLYTLHSSVNDKGLRVLEDNSALDKMLQNVQMPSKKLDFIILNETKFWYQMILPPHFDKSKKYPLLLDVYAGPCSQKADTVFRLNWATYLASTENIIVASFDGRGSGYQGDKIMHAINRRLGTFEVEDQIEAARQFSKMGFVDNKRIAIWGWSYGGYVTSMVLGSGSGVFKCGIAVAPVSRWEYYDSVYTERYMGLPTPEDNLDHYRNSTVMSRAENFKQVEYLLIHGTADDNVHFQQSAQISKALVDVGVDFQAMWYTDEDHGIASSTAHQHIYTHMSHFIKQCFSLP
- proteolytic processing (overnight incubation, Edman degradation) (MCP-2, P80075): no NH2-terminal sequence could be detected, indicating that CD26/DPP IV does not alter the NH2-terminus of MCPs
- proteolytic processing (overnight incubation, Edman degradation) (MCP-1, P13500): no NH2-terminal sequence could be detected, indicating that CD26/DPP IV does not alter the NH2-terminus of MCPs
- proteolytic processing (overnight incubation, Edman degradation) (RANTES(1-68)): CD26/DPP IV treatment of RANTES resulted in the removal of the NH2-terminal dipeptides
- proteolytic processing (overnight incubation, Edman degradation) [1]: no NH2-terminal sequence could be detected, indicating that CD26/DPP IV does not alter the NH2-terminus of MCPs
